The text below walks through data of patent US20250277031A1 (BEIJING HANMI PHARMACEUTICAL, published 2025).

Test [1] deals with T1, mouse CD47 on mouse red blood cells (mouse, UniProt Q61735 19-303).
T1 construct: whole, on cells; also called Mouse RBCs
T1 sequence (looked up): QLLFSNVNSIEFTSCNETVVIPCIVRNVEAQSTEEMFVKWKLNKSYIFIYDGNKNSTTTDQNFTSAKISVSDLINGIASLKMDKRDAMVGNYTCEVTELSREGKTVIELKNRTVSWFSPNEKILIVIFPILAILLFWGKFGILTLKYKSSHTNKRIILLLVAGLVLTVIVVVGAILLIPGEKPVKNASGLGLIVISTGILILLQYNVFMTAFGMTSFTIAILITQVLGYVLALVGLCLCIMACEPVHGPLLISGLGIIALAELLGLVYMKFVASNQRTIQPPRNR
Kind of test: flow cytometry on mouse RBCs. The procedure: The species specificity of the chimeric anti-human CD47 monoclonal antibodies was determined by flow cytometer FACS. Normal human RBCs internally donated, cynomolgus RBCs, rat RBCs and mouse RBCs were collected, washed once with cold PBS (GIBCO, Catalog number 14190) containing 2% FBS (Hyclone, Catalog number SH30084.03). The RBCs (2×10⁶ cells per tube) were resuspended in 100 μL of cold PBS containing 2% FBS, and the serially diluted anti-human CD47 antibody samples and the control CC-90002 and the isotype control were added therein. Flow tubes were incubated on ice for 30 minutes. The cells were washed twice with PBS containing 2% FBS. Then the pellets were resuspended in 200 μL of cold PBS containing 2% FBS and FITC-labeled anti-human IgG antibody diluted 1:1000 (Beijing Zhongshan Golden Bridge, Catalog number ZF0306), incubated on ice for 30 minutes in the dark. The cells were washed twice with PBS containing 2% FBS, then resuspended in 500 μL of cold PBS. The cell suspension obtained was detected and analyzed on a flow cytometer (BD, FACS Calibur), and the fluorescence intensities of the RBCs were read.
A general note: A flow cytometer gives signals particle by particle.

The target in test [2] is T2, recombinant mouse CD47 (mouse, UniProt Q61735 19-140, limits assumed).
T2 sequence (looked up): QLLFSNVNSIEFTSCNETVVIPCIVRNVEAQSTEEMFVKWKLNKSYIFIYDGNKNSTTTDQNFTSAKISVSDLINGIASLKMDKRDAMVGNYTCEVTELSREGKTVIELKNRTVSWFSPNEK
The experiment in a line: ELISA, plate coated with 1 µg/mL recombinant mouse CD47, anti-human IgG-HRP, OD450. The procedure: Species specificity of the chimeric anti-human CD47 mAbs was determined by ELISA. A 96-well high-adsorption ELISA plate was coated with 1 μg/mL of the recombinant human CD47, cynomolgus CD47, rat CD47 and mouse CD47, at 100 μL per well using carbonate buffer solution, pH=9.6 at 4° C. overnight. The plate was washed 5 times with PBST, and then blocked using PBST with 1% BSA, 300 μL/well, and incubated at 25° C. for 1 hour, and then washed 5 times with PBST. The chimeric anti-human CD47 antibody samples serially diluted in PBST with 1% BSA were added, 100 μL/well, incubated at 25° C. for 1 hour, and then washed 5 times with PBST. The horseradish peroxidase-labeled anti-human IgG antibody (Chemicon, catalog number AP309P) diluted 1:10000 in PBST with 1% BSA was then added, 100 μL per well, and incubated at 25° C. for 1 hour. The plate was washed 5 times with PBST. The colorimetric substrate TMB was added, 100 μL/well, and developed at room temperature for 10 minutes. 1M H₂SO₄ was added, 100 μL/well, to stop the development. The absorbance at 450 nm was read on a microplate reader.

Test [3] concerns the target T3, B7-H1 (human, UniProt Q9NZQ7).
T3 construct: recombinant protein; also called PD-L1
Kind of test: ELISA, plate coated with 1 µg/mL recombinant human protein, anti-human IgG-HRP, OD450; antibody concentration not given. Background: ELISA stands for enzyme-linked immunosorbent assay.

The target of test [4] is T4, recombinant human CD47-Fc protein (ACROBiosystems, catalog number CD7-H52A5) (human, UniProt Q08722 19-139).
T4 construct: bought; not shown: Fc part of a bought fusion protein, not described
Kind of test: blocking ELISA: plate coated with human CD47-Fc, 2 nM biotin-labelled SIRPα as the blocked ligand, falling OD450 curve; the sheet labels the half-maximal value EC50. The procedure: A 96-well high-adsorption ELISA plate was coated with 1 μg/mL of the recombinant human CD47-Fc (ACROBiosystems) at 100 μL per well using carbonate buffer solution, pH=9.6 at 4° C. overnight. The plate was washed 5 times with PBST, and then blocked using PBST with 1% BSA, 300 μL/well, and incubated at 25° C. for 1 hour, and then washed 5 times with PBST. The anti-human CD47 antibody samples were added, 50 μL/well, the biotin-labelled SIRPα (ACROBiosystems) was added at a concentration of 4 nM (a final concentration of 2 nM), 50 μL/well, incubated at 25° C. for 90 minutes, and then washed 5 times with PBST. The Streptavidin-HRP (BD Pharmingen, catalog number 554066) diluted 1:1000 in PBST with 1% BSA was then added, 100 μL per well, and incubated at 25° C. for 1 hour. The plate was washed 5 times with PBST. The colorimetric substrate TMB was added, 100 μL/well, and developed at room temperature for 10 minutes. 1M H₂SO₄ was added, 100 μL/well, to stop the development. The absorbance at 450 nm was read on a microplate reader.

T3 sequence (Q9NZQ7 19-238 limits assumed): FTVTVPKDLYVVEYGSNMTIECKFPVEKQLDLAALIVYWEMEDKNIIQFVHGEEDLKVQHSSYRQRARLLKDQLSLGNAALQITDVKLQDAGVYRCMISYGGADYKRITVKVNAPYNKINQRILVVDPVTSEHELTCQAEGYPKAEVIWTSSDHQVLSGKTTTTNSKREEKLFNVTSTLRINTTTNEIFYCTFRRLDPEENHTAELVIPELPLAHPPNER
T4 sequence (Q08722 19-139 limits assumed): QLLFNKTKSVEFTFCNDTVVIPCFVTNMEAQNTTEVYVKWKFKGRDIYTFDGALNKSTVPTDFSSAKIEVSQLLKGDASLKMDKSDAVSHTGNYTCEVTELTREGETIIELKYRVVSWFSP

B1: chimeric anti-human CD47 monoclonal antibody mAb-18-5 (antibody, human IgG1, kappa)
heavy: not shown
light: DIVMTQSQKFMSTSVGDRVSITCKASQNVRTSIAWYQQKSGQSPKTLIYLASNRHTGVPDRFTGSGSGTDFTLTISNVQSEDLADYFCLQHWNYPFTFGSGTKLEIKRTVAAPSVFIFPPSDEQLKSGTASVVCLLNNFYPREAKVQWKVDNALQSGNSQESVTEQDSKDSTYSLSSTLTLSKADYEKHKVYACEVTHQGLSSPVTKSFNRGEC
As for B1, the binding result is listed as “no binding” in test [1], “no binding (tested: about 20 nM)” in test [2] and “no binding” in test [3]. Further, the IC50 (as a rule, the point on the concentration scale where inhibition reaches its midpoint) in test [4] came out at 1.86 nM.
